Laboratory results published in paper PMC7504066.

Legend:
[1] = molecular target: Plasmodium vivax PLP synthase domain (Pdx1) (Plasmodium vivax); experiment: SAXS; batch SAXS at EMBL beamline P12 (PETRA III), 293 K; Pdx1 and SEC-purified Pdx complex (mixed 1:1, overnight) at 1, 2 and 5 mg mL^-1; ab initio (GASBOR, P6) and rigid body (SASREF) models, SAXSMoW mass
[2] = molecular target: Plasmodium vivax PLP synthase domain (Pdx1) (Plasmodium vivax); experiment: SEC; each protein alone on a Superdex 200 26/60 column; peak fractions evaluated by PAGE
[3] = molecular target: Plasmodium vivax PLP synthase domain (Pdx1) (Plasmodium vivax); experiment: native gel or EMSA; native PAGE of the purified proteins and of the SEC-purified Pdx complex
[4] = molecular target: Plasmodium vivax PLP synthase domain (Pdx1) (Plasmodium vivax); experiment: negative-stain electron microscopy; Pdx1 alone, 25-30 µg mL^-1 in 20 mM Tris pH 8.0, 200 mM NaCl, 5 mM MTG, 2% uranyl acetate
[5] = molecular target: Plasmodium vivax PLP synthase domain (Pdx1) (Plasmodium vivax); experiment: dynamic light scattering; purified Pdx1 alone and SEC-purified Pdx complex in a quartz cuvette, Spectroscatter-301, 660 nm laser, 90° angle

Plasmodium vivax glutaminase domain (Pdx2) (enzyme)
12: stoichiometry N (Pdx2 per Pdx1 dodecamer (12:12)) [1]

Plasmodium vivax PLP synthase domain (Pdx1) (enzyme)
12: stoichiometry N [2] | stoichiometry N [3] | stoichiometry N [4] | stoichiometry N [5] | stoichiometry N [1]
